Assay results taken from patent US20250250357A1 (NANJING ZAIMING PHARMACEUTICAL, published 2025).
Substitutions are numbered along the chain they refer to.

B1: S009-F8-24.14 (antibody, human IgG1, kappa, V domains shown)
VH: EFQLQQSGPELVKPGASVKISCKASGYSFTDYNMNWVKLSNGKSLEWIGVIIPNYGTSSYNQKFKGKATLTVDQSSSTAYMQLNSLTSEDSAVYYCARWDNYYGSSLDYWGQGTTLTVSS
VL: DIVMTQSQKFMSTTVGDRVSITCKASQNVGTAVAWYQQKPGQSPKLLIYSASNRYTGVPDRFTGSGSGTDFILTISNMQSEDLADYFCQQYSSYPLTFGAGTKLELKR
notes: Human-murine chimeric antibody, human IgG1 heavy and kappa light constant regions
B2: S009-F8-27.1 (antibody, human IgG1, kappa, V domains shown)
VH: EVQLVESGGGLVKPGGSLKLSCAASGFTFSSYAMSWVRQTPEKRLEWVATISDGGNYTYYPDNVKGRFTISRDNAKNNLYLQMSHLKSEDTAMYYCAGDRGYPYAMDSWGQGTSVTVSS
VL: NIMMTQSPSSLAVSAGEKVTMSCKSSQSVLYSSNQKNYLAWYQQKPGQSPKLLIYWASTRESGVPDRFTGSGSGTDFTLTISNVHAEDLAVYYCHQYLSSLTFGAGTKLELKR
notes: as for B1
B3: S009-F8-28.23 (antibody, human IgG1, kappa, V domains shown)
VH: B2 VH with G10D, N56S, K65E, P103S, M106L, S108Y
VL: B2 VL with N83S, H85Q
notes: as for B1
B4: S009-F8-29.1 (antibody, human IgG1, kappa, V domains shown)
VH: QVQLQQSGAELARPGASVKMSCKASGYTFISYTMHWVKQRPGQGLEWIGYINPSSGYTKYNQKFKDKATLTADKSSSTAYMQLNSLTSEDSAVYYCARYYSNPDYYAMDYWGQGTSVTVSS
VL: QIVLTQSPAIMSASPGEKVTITCSASSSVSYMHWFQQKPGTSPKLWIYSTSNLASGVPARFSGSGSGTSYSLTISRMEAEDAATYYCQQRSSYPLTFGGGTKLELKR
notes: as for B1
B5: S009-F8-31.22 (antibody, human IgG1, kappa, V domains shown)
VH: EVQLVESGGDLVKPGGSLKLSCAASGFTFSTYGMSWVRQTPDKRLEWVATISSGGSYTYYPDSLKGRFTISRDNAKNTLYLQMSSLKSEDTAMYYCARHEGYYYGKDYWGQGTTLTVSS
VL: DIVLTQSPATLSVTPGDSVSLSCRASHSISNNLHWYQQKSHESPRLLIKYASQSISGIPSKFSGSGSGTDFTLSINSVETEDFGMYFCQQTNSWPLTFGAGTKLELKR
notes: as for B1
B6: S009-F8-32.3 (antibody, human IgG1, kappa, V domains shown)
VH: QVQLKESGPGLVAPSQSLSITCTVSGFSLSSYAISWVRQPPGKGLEWLGVIWTGGGTNYNSALKSRLSISKDNSKSQVFLKMNSLQTDDTARFYCARNNYGRLDYAMDYWGQGTSVTVSS
VL: DVVMTQTPLSLPVSLGDQASISCRSSQSLVHGNGNTYLHWYLQKPGQSPKLLIYKVSNRFSGVPDRFSGSGSGTDFTLKISRVETEDLGVYFCSQSTHVPFTFGSGTKLEIKR
notes: as for B1
B7: S009-F8-33.12 (antibody, human IgG1, kappa, V domains shown)
VH: EVQLQQSGAELVKPGASVKLSCTASAFNIKDYYMHWVKQRTEQGLEWIGRIDPEDGETKYAPKFQGKATITADTSSNTAYLQLSSLTSEDTAVYYCASGSGTGAMDYWGQGTSVTVSS
VL: DIVMTQSQKFMSTSVGDRVSITCKASQNVRTAVGWYQQKPGQSPKALIYLASNRHTGVPDRFTGSGSGTDFTLTISNVQSEDLADYFCLQHWNSPYTFGGGTKLVIKR
notes: as for B1
B8: S009-F8-36.12 (antibody, human IgG1, kappa, V domains shown)
VH: EVQLQQSGPELVKPGASVKISCKASGYTFTDYYMNWVKQSHGKSLEWIGDINPNNGGTSYNQKFKGKATLTVDKSSSTAYMELRSLTSEDSAVYYCASWGYGSSSRGYFDYWGQGTTLTVSS
VL: QIVLSQSPAILSASPGEKVTMTCRASSSVSYMHWYQQKPGSSPKPWIYATSNLASGVPARFSGSGSGTSYSLTISRVEAEDAATYYCQQWSSNPWTFGGGTKLEIKR
notes: as for B1
B9: S009-F2.13.3 (antibody, human IgG1, kappa, V domains shown)
VH: QVQLQQSGAELMKPGASVKLSCKATGYTFTGYWIEWVKQRPGHGLEWIGEILPGSGSTNYNEKFKGKATFTADTSSNTAYMQLSSLTTEDSAIYYCARAGAWFAYWGQGTLVTVSA
VL: QIVLTQSPAIMSASLGERVTMTCTASSSVSSSYLHWYQQKPGSSPKLWTYSTSNLASGVPARFSGSGSGTSYSLTISSMEAEDAATYYCHQYHRSPWTFGGGTKLEIKR
notes: human-murine chimeric antibody, human IgG1/kappa constant regions
B10: S009-F2.16.10 (antibody, human IgG1, kappa, V domains shown)
VH: QVQLQQPGAELIKPGASVKLSCKASGYTFTSYWMHWVKQRPGQGLEWIGIIHPNIGSTNYNERFKSKATLTVDKSSSTAYMQLSSLTSEDSAVYYCARRSSNYGDWYFDVWGTGTTVTVSS
VL: DIVMTQSHRFMSTSVGDRVSITCKASQDVGTSVAWYQQKPGQSPKLLIYWASTQHTGVPDRFTGSGSGTDFTLTINNVQSEDLLDYFCQQYSSYPLTFGAGTKLELKR
notes: as for B9
B11: S009-F2.17.3 (antibody, human IgG1, kappa, V domains shown)
VH: QVQLQQPGTELVTPGASVKLSCKASGYSFTSYWMHWVKQRPGQGLEWIGNINPSNGDTFYNEKFKNKATLTVDKSSSTAYMQLSSLTSEDSAVYYCARGWLRDYWGQGTTLTVSS
VL: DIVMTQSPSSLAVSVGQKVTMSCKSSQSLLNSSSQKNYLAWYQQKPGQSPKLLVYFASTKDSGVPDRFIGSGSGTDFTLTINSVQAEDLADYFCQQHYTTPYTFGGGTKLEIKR
notes: as for B9
B12: S009-F2.47.1 (antibody, human IgG1, kappa, V domains shown)
VH: QVQLQQPGAELVKPGASVKLSCKASGYTFTSYWMHWVKQRPGQGLEWIGMIHPNSGSTNYNEKFKSKATLTVDKSSSTAYMQLSSLTSEDSAVYYCARPVVPYWYFDVWGTGTTVTVSS
VL: B1 VL with I72T, Y91S
notes: as for B9

Tests used:
[1] = target: T1, human MSLN-FL-his protein (human, UniProt Q13421 296-580); test: ELISA on coated antigen, antibody 0.001 nM
T1 construct: Made in HEK293E cells, purified on nickel column; it is put last here; also called human MSLN full-length protein; hMSLN-FL-his; not shown: His tag

[2] = target: T1, human MSLN-FL-his protein; test: ELISA on coated antigen, antibody 0.01 nM
[3] = target: T1, human MSLN-FL-his protein; test: ELISA on coated antigen, antibody 10 nM
[4] = target: T1, human MSLN-FL-his protein; test: ELISA on coated antigen, antibody 0.0001 nM
[5] = target: T1, human MSLN-FL-his protein; test: ELISA on coated antigen, antibody 0.1 nM
[6] = target: T1, human MSLN-FL-his protein; test: ELISA on coated antigen, antibody 100 nM
[7] = target: T1, human MSLN-FL-his protein; test: ELISA on coated antigen, no antibody (blank, column 'none')
[8] = target: T1, human MSLN-FL-his protein; test: ELISA on coated antigen, antibody 1 nM
[9] = target: T2, human MSLN-R3 protein (Met487-Ser606 of NCBI AAH09272.1) expressed on HEK293T-hMSLN-R3 cells (human, UniProt Q13421 487-606); test: FACS on HEK293T-hMSLN-R3 cells
T2 construct: also called Region3

[10] = target: T3, human MSLN protein endogenously expressed on OVCAR3 tumor cells (human, UniProt Q13421 296-598); test: FACS on OVCAR3 cells
T3 construct: whole, on cells; Endogenous target on OVCAR3 cells; kept apart from the recombinant full-length construct; also called mesothelin

[11] = target: T4, human MSLN full-length protein (NCBI: AAH09272.1) expressed on HEK293T-hMSLN-B8 cells (human, UniProt Q13421 296-598); test: FACS on HEK293T-hMSLN-B8 cells
T4 construct: Whole encoded precursor

[12] = target: T5, monkey MSLN full-length protein (NCBI: XP_028696439.1) expressed on HEK293T-monkey MSLN cells (monkey); test: FACS on HEK293T-monkey MSLN cells
T5 construct: Whole encoded precursor
T5 chain: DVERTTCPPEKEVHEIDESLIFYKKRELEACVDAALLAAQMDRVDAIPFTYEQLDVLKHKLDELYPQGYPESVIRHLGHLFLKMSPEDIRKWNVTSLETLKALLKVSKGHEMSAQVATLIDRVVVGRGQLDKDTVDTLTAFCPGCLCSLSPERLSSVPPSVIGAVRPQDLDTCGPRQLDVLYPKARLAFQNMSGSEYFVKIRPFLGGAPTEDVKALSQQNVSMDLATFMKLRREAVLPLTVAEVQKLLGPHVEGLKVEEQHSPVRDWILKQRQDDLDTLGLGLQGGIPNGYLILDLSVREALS

T3 sequence (Q13421 other isoform, or with tags, fused parts or gaps): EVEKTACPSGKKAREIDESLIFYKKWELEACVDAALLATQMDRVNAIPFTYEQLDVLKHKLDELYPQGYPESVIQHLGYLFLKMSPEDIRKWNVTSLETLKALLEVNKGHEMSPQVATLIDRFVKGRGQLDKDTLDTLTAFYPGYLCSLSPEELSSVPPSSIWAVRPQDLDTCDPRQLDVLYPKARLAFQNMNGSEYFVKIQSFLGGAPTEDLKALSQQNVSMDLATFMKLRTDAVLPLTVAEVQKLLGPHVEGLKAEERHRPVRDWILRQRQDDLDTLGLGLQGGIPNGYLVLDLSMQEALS
T4 sequence (Q13421 other isoform, or with tags, fused parts or gaps limits assumed): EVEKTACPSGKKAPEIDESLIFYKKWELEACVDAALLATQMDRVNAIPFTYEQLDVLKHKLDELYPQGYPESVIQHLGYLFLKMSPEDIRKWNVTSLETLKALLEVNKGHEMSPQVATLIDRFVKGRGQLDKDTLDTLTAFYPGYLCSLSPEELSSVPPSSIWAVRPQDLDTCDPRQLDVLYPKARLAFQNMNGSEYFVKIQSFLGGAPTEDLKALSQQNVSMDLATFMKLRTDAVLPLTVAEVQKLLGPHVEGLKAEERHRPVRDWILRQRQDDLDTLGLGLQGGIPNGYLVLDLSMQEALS
T2 sequence (Q13421 495-614): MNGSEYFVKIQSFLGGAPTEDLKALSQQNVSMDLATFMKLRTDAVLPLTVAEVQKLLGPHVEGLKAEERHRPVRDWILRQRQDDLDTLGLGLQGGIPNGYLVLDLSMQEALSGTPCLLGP
T1 sequence (Q13421 other isoform, or with tags, fused parts or gaps): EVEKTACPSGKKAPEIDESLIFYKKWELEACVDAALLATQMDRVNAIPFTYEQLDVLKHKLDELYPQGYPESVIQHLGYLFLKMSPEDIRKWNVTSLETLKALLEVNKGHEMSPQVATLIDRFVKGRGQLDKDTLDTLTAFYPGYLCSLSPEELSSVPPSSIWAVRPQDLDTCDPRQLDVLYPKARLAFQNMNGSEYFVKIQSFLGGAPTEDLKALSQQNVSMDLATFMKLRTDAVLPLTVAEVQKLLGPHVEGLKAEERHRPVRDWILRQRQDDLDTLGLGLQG

Row | Binder | OD450 [1] | OD450 [2] | OD450 [3] | OD450 [4] | OD450 [5] | OD450 [6] | OD450 [7] | OD450 [8] | Maximum mean fluorescence intensity [9] | binding result [9] | EC50 [10] | Maximum mean fluorescence intensity [10] | EC50 [11] | Maximum mean fluorescence intensity [11] | Maximum mean fluorescence intensity [12] | binding result [12] | EC50 [12] | EC50 [9]
1 | B1 | 0.18 OD | 0.75 OD | 2.98 OD | 0.1 OD | 2.02 OD | 2.91 OD | 0.06 OD | 2.77 OD |  |  |  |  |  |  |  |  |  | 
2 | B2 | 0.08 OD | 0.31 OD | 2.37 OD | 0.05 OD | 1.34 OD | 2.5 OD | 0.04 OD | 2.23 OD |  |  |  |  |  |  |  |  |  | 
3 | B3 | 0.08 OD | 0.24 OD | 3.13 OD | 0.05 OD | 1.04 OD | 3 OD | 0.05 OD | 2.63 OD |  |  |  |  |  |  |  |  |  | 
4 | B4 | 0.13 OD | 0.48 OD | 3.2 OD | 0.07 OD | 1.71 OD | 3.07 OD | 0.18 OD | 2.9 OD |  |  |  |  |  |  |  |  |  | 
5 | B5 | 0.2 OD | 0.85 OD | 2.56 OD | 0.08 OD | 2.19 OD | 2.66 OD | 0.08 OD | 2.53 OD |  |  |  |  |  |  |  |  |  | 
6 | B6 | 0.11 OD | 0.48 OD | 2.85 OD | 0.07 OD | 1.63 OD | 3.03 OD | 0.04 OD | 2.64 OD |  |  |  |  |  |  |  |  |  | 
7 | B7 | 0.11 OD | 0.43 OD | 2.92 OD | 0.05 OD | 1.61 OD | 2.95 OD | 0.06 OD | 2.57 OD |  |  |  |  |  |  |  |  |  | 
8 | B8 | 0.06 OD | 0.18 OD | 2.69 OD | 0.05 OD | 0.73 OD | 2.71 OD | 0.04 OD | 2.21 OD |  |  |  |  |  |  |  |  |  | 
9 | B9 |  |  |  |  |  |  |  |  | 112 | no binding | 0.57 nM | 14800 | 1.15 nM | 112000 | 138 | no binding |  | 
10 | B10 |  |  |  |  |  |  |  |  | 114 | no binding | 2.96 nM | 14400 | 0.88 nM | 109000 | 18400 |  | 0.3 nM | 
11 | B11 |  |  |  |  |  |  |  |  | 3840 |  | 2.92 nM | 17600 | 3.95 nM | 148000 | 24300 |  | 1.63 nM | 1.48 nM
12 | B12 |  |  |  |  |  |  |  |  |  |  | 10.4 nM | 15400 | ~0.82 nM | 98200 | 17100 |  | 0.32 nM | 
